Values quoted from earlier work, collected in US10669306B2, “Solid supports for use in solid-phase peptide synthesis, kits, and related methods” (UNIVERSITY OF WASHINGTON, priority 2016, dated 2020).

Target: integrin αvβ3 receptor (Homo sapiens, UniProt P05106+P06756)
Conditions: cyclic form; Prante, O., et al. Bioconjug. Chem. 2007, 18, 254

Sequence of integrin αvβ3 receptor (P06756 31-889 limits assumed): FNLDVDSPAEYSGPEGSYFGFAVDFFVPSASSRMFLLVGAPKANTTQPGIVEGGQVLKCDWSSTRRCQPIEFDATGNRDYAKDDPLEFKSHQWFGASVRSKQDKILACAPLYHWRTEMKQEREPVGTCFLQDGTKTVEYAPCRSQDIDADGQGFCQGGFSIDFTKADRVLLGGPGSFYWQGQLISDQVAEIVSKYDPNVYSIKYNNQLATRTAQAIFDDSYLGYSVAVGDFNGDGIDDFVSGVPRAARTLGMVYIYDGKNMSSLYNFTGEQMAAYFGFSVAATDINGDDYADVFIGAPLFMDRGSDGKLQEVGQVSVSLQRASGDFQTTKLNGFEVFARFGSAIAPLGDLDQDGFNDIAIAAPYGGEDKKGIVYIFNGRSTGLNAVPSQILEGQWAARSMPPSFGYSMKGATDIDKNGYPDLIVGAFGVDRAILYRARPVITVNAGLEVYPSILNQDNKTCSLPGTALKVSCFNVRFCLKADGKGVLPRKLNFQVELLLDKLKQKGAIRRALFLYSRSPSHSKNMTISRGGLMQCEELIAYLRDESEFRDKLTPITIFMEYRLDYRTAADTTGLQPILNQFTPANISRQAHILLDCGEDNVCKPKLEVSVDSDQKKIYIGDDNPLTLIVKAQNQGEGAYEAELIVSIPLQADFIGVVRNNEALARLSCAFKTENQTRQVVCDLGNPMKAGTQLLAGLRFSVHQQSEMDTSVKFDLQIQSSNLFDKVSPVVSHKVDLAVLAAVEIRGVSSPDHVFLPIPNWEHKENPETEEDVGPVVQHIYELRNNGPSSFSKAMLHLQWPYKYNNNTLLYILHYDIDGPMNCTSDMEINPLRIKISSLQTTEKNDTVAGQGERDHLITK
Sequence of integrin αvβ3 receptor (P06756 891-1048 partner limits assumed): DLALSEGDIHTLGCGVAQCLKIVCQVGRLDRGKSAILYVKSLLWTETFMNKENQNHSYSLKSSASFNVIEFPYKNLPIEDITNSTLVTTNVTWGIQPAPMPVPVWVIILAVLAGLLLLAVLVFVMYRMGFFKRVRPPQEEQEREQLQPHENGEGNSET
Sequence of integrin αvβ3 receptor (P05106 27-788): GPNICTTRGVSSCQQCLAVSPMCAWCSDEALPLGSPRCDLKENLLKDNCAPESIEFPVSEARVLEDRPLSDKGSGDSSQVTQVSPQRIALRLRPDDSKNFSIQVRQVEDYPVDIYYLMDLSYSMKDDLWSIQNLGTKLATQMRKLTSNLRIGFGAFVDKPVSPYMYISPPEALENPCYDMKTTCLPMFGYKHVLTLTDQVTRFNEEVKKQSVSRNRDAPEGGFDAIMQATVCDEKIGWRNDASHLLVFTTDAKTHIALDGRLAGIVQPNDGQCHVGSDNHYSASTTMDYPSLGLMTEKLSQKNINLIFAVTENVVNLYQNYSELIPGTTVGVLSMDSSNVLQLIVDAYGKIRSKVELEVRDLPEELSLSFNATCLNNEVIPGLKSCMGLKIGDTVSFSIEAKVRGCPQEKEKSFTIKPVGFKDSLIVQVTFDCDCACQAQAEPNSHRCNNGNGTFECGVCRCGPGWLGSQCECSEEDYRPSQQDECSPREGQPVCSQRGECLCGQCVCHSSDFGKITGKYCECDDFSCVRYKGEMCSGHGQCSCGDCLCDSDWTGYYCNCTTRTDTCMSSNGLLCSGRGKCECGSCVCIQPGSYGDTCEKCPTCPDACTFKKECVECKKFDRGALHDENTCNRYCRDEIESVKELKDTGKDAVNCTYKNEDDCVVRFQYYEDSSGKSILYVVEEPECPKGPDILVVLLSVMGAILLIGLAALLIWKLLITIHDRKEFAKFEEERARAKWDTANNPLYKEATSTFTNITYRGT

In the case of “CRGD(D-F): Cyclic CRGD(D)-F, a commercially available integrin binding peptide (ANASPEC)”, the “binding affinity for integrin αvβ3 receptor” value is listed as “nanomolar affinity”.
